Source: PMC8943916

Molecular target: TIM (the TIM-EGFP-LacI bait of the FRAP experiment, not named)
Experiment: FRAP

FRAP half-life: 14.9 s
B1: TagRFP-PPP1R10-TND (domain or fragment)
chain: KLLNNWLTYSKTTNNIPLLQQILLTLQHLPLTVDHLKQNNTAKLVKQLSKSSEDEELRKLASVLVSDWMAVIRSQ
